Laboratory results published in patent US20240327505A1 (published 2024).
Numbering of substitutions follows the chain as printed.

B1: AB-009119 (antibody, V domains shown)
VH: EVQLVESGGGLVQPGGSLKLSCAASGFTFSGSAMHWVRQASGKGLEWVGRIRSKANSYATAYAASVKGRFTISRDDSKNTAYLQMNSLKTEDTAVYYCTRHGTTVNWGQGTLVTVSS
VL: not shown
B2: AB-009112 (antibody, V domains shown)
VH: QVQLVESGGGVVQPGRSLRLSCAASGFTFSSYAMHWVRQAPGKGLEWVAVISYDGSNKYYADSVKGRFTISRDNSKNTLYLQMNSLRAEDTAVYYCASSLVGATKSYYYYYYGMDVWGQGTTVTVSS
VL: SYELTQPLSVSVALGQTARITCGGNNIGSKNVHWYQQKPGQAPVLVIYRDSNRPSGIPERFSGSNSGNTATLTISRAQAGDEADYYCQVWDSSSVVFGGGTKLTVL
B3: AB-009610 (antibody, V domains shown)
VH: QVQLVQSGAEVKKPGSSVKVSCKASGGTFSNYAISWVRQAPGQGLEWMGRIIPILGIANYAQKFQGRVTITADKSTSTAYMELSSLRSEDTAVYYCATTPYYYDSSGYYLDYWGQGTLVTVSS
VL: not shown
B4: AB-009270 (antibody, V domains shown)
VH: QMQLVQSGPEVKKPGTSVKVSCKASGFTFTSSAMQWVRQARGQRLEWIGWIVVGSGNTNYAQKFQERVTITRDMSTSTAYMELSSLRSEDTAVYYCAVNYCSSTSCYDAFDIWGQGTMVTVSS
VL: not shown
B5: AB-010021 (antibody, V domains shown)
VH: B4 VH with M34V, V98A, N99V, S103G, T104G, Y107L
VL: not shown
notes: also called AB-0010021
B6: AB-010021 (antibody, V domains shown)
VH: B4 VH with M34V, V98A, N99V, S103G, T104G, Y107L
VL: not shown
B7: AB-010020 (antibody, V domains shown)
VH: B4 VH with M34V, V98A, N99P, Y100A, A109G
VL: not shown
B8: AB-009661 (antibody, V domains shown)
VH: QVQLVESGGGVVQPGRSLRLSCAASGFTFSSYGMHWVRQAPGKGLEWVAVISYDGSNKYYADSVKGRFTISRDNSKNTLYLQMNSLRAEDTAVYYCAKDYGDYGGMDVWGQGTTVTVSS
VL: not shown
B9: AB-009213 (antibody, V domains shown)
VH: EVQLVESGGGLVKPGGSLRLSCAASGFTFSSYSMNWVRQAPGKGLEWVSSISSSSSYIYYADSVKGRFTISRDNAKNSLYLQMNSLRAEDTAVYYCARDKLREDGDYDDAFDIWGQGTMVTVSS
VL: not shown
B10: AB-009769 (antibody, V domains shown)
VH: EVQLVESGGGLVQPGGSLRLSCAASGFTFSSYWMSWVRQAPGKGLEWVANIKQDGSEKYYVDSVKGRFTISRDNAKNSLYLQMNSLRAEDTAVYYCARSPEVLWFGDPVLDNWFDPWGQGTLVTVSS
VL: SYELTQPPSVSVSPGQTARITCSGDALPKQYAYWYQQKPGQAPVLVIYKDSERPSGIPERFSGSSSGTTVTLTISGVQAEDEADYYCQSADSSGTYPVVFGGGTKLTVL
B11: AB-009281 (antibody, V domains shown)
VH: EVQLVETGGGLIQPGGSLRLSCAASGFTVSSNYMSWVRQAPGKGLEWVSVIYSGGSTYYADSVKGRFTISRDNSKNTLYLQMNSLRAEDTAVYYCARDLYYYGMDVWGQGTTVTVSS
VL: DIQLTQSPSFLSASVGDRVTITCRASQGISSYLAWYQQKPGKAPKLLIYAASTLQSGVPSRFSGSGSGTEFTLTISSLQPEDFATYYCQQLNSYPTFGQGTKVEIK
B12: AB-009613 (antibody, V domains shown)
VH: B11 VH with T7S, L99Y, Y100G, Y101D, Y102F, G103Y, M104F, V106Y, T112L
VL: not shown
B13: AB-009271 (antibody, V domains shown)
VH: B11 VH with T7S, T28I, L99Y, Y100G, Y101D, Y102F, G103Y, M104F, V106Y, T112L
VL: EIVMTQSPATLSVSPGERATLSCRASQSVSSNLAWYQQKPGQAPRLLIYGASTRATGIPARFSGSGSGTEFTLTISSLQSEDFAVYYCQQYYNWPRTFGQGTKVEIK
B14: AB-009734 (antibody, V domains shown)
VH: QVHLVQSGAEVKTPGASVRVSCKASGYTFTSHYMHWVRQAPGQGLEWMGLINPSGSGTAYPQHFQGRVTMTRDTSTTTDYMDLSSLRSEDTAMYFCARMERSGAFDLWGQGTMVTVSS
VL: EIVLTQSPGTLSLSPGERATLSCRASQTISSRYLAWYYQKPGQAPRLLIQGSSIRATGIPDRFSGSGSGTDFTLTISRLEPEDFAVYYCQHYGSSPPMYTFGQGTKLEIK
B15: AB-009615 (antibody, V domains shown)
VH: QVQLVESGGGVVQPGRSLRLSCAASGFTFSSYGMHWVRQAPGKGLEWVAVIWYDGSNKYYADSVKGRFTISRDNSKNTLYLQMNSLRAEDTAVYYCAKVGSPYCSGGSCYSGYFDYWGQGTLVTVSS
VL: not shown
B16: AB-009614 (antibody, V domains shown)
VH: QVQLVESGGGVVQPGRSLRLSCAASGFTFSSYGMHWVRQAPGKGLEWVAVISYDGSNKYYADSVKGRFTISRDNSKNTLYLQMNSLRAEDTAVYYCAKDQKYYDILTGYYRSTYYYYYYGMDVWGQGTTVTVSS
VL: not shown
B17: AB-009095 (antibody, V domains shown)
VH: EVQLVQSGAEVKKPGESLIISCTGSGYTFATFWITWVRQMPGKGLEWLGRIDPSDSYTNYNPSFQGHVTVSVDRSINTAYLELTSLKASDTAIYYCARQMYNTGWPIPNYSDYWGQGTLVTVSS
VL: QSALTQPPSASGSPGQSVTISCAGASTDVGVYNFVSWYQQHPGKAPKLIIFDVNKRPSGVPDRFSGSKSGNTASLTVSGLQAEDEADYYCSSYEVGNNFVFGTGTKVTVL
B18: AB-009778 (antibody, V domains shown)
VH: QLQLQESGPGLVKPSETLSLTCTVSGGSISSSSYYWGWIRQPPGKGLEWIGSIYYSGSTYYNPSLKSRVTISVDTSKNQFSLKLSSVTAADTAVYYCARQFRRWLQLGPSYFDYWGQGTLVTVSS
VL: not shown
B19: AB-009760 (antibody, V domains shown)
VH: EVQLVQSGAEVKKPGESLKISCKGSGYSFTSYWIGWVRQMPGKGLEWMGIIYPGDSDTRYSPSFQGQVTISADKSISTAYLQWSSLKASDTAMYYCARSRSSDYFDYWGQGTLVTVSS
VL: not shown
B20: AB-009791 (antibody, V domains shown)
VH: QLQLQESGPGLVKPSETLSLTCTVSGGSISSSSYYWGWIRQPPGKGLEWIGSIYYSGSTYYNPSLKSRVTISVDTSKNQFSLKLSSVTAADTAVYYCAREPRRVKQWLVVPYYYMDVWGKGTTVTVSS
VL: not shown
B21: AB-009346 (antibody, V domains shown)
VH: EVQLVESGGGVVRPGGSLRLSCAASGFTFDDYGMSWVRQAPGKGLEWVSGINWNGGSTGYADSVKGRFTISRDNAKNSLYLQMNSLRAEDTALYYCARWPLLGISGYYHYYMDVWGKGTTVTVSS
VL: QSALTQPRSVSGSPGQSVTISCTGTSSDVGGYNYVSWYQQHPGKAPKLMIYDVSKRPSGVPDRFSGSKSGNTASLTISGLQAEDEADYYCCSYAGSYTLLFGGGTKLIVL
B22: AB-009799 (antibody, V domains shown)
VH: QVQLVQSGAEVKKPGASVKVSCKASGYTFTSYDINWVRQATGQGLEWMGWMNPNSGNTGYAQKFQGRVTMTRNTSISTAYMELSSLRSEDTAVYYCARGRLRITIFNRVYYFDYWGQGTLVTVSS
VL: not shown

Experiments:
[1] = molecular target: SARS-CoV-2 Nucleocapsid (N) protein (SARS-CoV-2, UniProt P0DTC9 1-419)
[2] = molecular target: SARS-CoV-2 spike S2 protein (SARS-CoV-2, UniProt P0DTC2 686-1213)
[3] = molecular target: T1, SARS-CoV-2 spike S2 protein (SARS-CoV-2, UniProt P0DTC2 686-1213); assay: BLI, as in Example 4
T1 construct: domain: S2

[4] = molecular target: SARS-CoV-2 spike protein on fully infectious (replication-competent) SARS-CoV-2 virus (SARS-CoV-2, UniProt P0DTC2 14-1273); assay: cell-based or functional assay
[5] = molecular target: SARS-CoV-1 spike protein on pseudovirus (SARS-CoV-1, UniProt P59594 14-1255); assay: cell-based or functional assay
[6] = molecular target: SARS-CoV-2 Wuhan-1 full-length Spike protein on pseudovirus (SARS-CoV-2, UniProt P0DTC2 14-1273); assay: cell-based or functional assay
[7] = molecular target: SARS-CoV-2 spike receptor-binding domain (RBD) (SARS-CoV-2, UniProt P0DTC2 319-541)
[8] = molecular target: SARS-CoV-2 spike S1 protein (SARS-CoV-2, UniProt P0DTC2 16-685)
[9] = molecular target: SARS-CoV-2 Nucleocapsid (N) protein (SARS-CoV-2, UniProt P0DTC9 1-419); remark: listed apart in the source

Binder	Neutralization (Infectious virus; (µg/mL)) [4] [µg/mL]	Pseudovirus Neturalization [5] [µg/mL]	Pseudovirus Neturalization [6] [µg/mL]	other results
B1				Kd [1]: 7.35 nM; koff [1]: 0.000647 s⁻¹; kon [1]: 88000 M⁻¹ s⁻¹; Kd [2]: 0.0583 nM; koff [2]: 2.56e-07 s⁻¹; kon [2]: 4390 M⁻¹ s⁻¹
B2				Kd [1]: 32.7 nM
B3	6.25	> 50	6.77	binding result [3]: no binding
B4	1.37	> 50	0.065	binding result [3]: no binding
B5		> 50	1.56	binding result [3]: no binding
B6				Kd [7]: 12.4 nM; koff [7]: 0.00275 s⁻¹; kon [7]: 221000 M⁻¹ s⁻¹; Kd [8]: 12.5 nM; koff [8]: 0.00214 s⁻¹; kon [8]: 171000 M⁻¹ s⁻¹
B7		> 50	0.004	binding result [3]: no binding
B8	20.6	> 50	> 50	
B9				Kd [1]: 10 nM; koff [1]: 0.00112 s⁻¹; kon [1]: 112000 M⁻¹ s⁻¹
B10	24.5	> 50	> 50	
B11	33.7	> 50	0.215	
B12	3.4	> 50	1.53	binding result [3]: no binding
B13	0.181	> 50	0.058	binding result [3]: no binding
B14	21.4	> 50	42.4	
B15	12.3	> 50	27.7	
B16	0.075	> 50	0.142	
B17				Kd [1]: 0.833 nM; koff [1]: 5.93e-05 s⁻¹; kon [1]: 71100 M⁻¹ s⁻¹; Kd [2]: 0.176 nM; koff [2]: 2.15e-07 s⁻¹; kon [2]: 1220 M⁻¹ s⁻¹
B18				Kd [9]: 48.5 nM; koff [9]: 0.000866 s⁻¹; kon [9]: 17800 M⁻¹ s⁻¹
B19	32.8	> 50	4.1	
B20				Kd [9]: 4.61 nM; koff [9]: 8.35e-05 s⁻¹; kon [9]: 18100 M⁻¹ s⁻¹
B21	2.14	> 50	0.774	
B22				Kd [9]: 19.6 nM; koff [9]: 0.000265 s⁻¹; kon [9]: 13600 M⁻¹ s⁻¹
